In patent publication US20190119345A1 (published 2019):

Target: T1, murine NKG2D on NK cells / splenocytes (mouse, UniProt O54709 1-232)
T1 construct: whole, on cells; also called NKG2D receptor
T1 sequence: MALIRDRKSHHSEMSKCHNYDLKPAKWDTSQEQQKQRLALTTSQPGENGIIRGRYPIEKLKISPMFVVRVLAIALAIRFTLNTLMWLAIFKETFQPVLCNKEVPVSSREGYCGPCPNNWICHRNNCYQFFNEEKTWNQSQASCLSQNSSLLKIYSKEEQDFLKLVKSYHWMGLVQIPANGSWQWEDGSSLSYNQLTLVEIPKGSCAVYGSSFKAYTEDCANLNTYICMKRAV
Assay: flow cytometry, fluorescently labeled construct on bulk splenocytes at 37° C.

B1: OMCP-mutIL2 (R38A, F42K, C125S IL2-OMCP construct) (other)
chain: HKLAFNFNLEINGSDTHSTVDVYLDDSQIITFDGKDIRPTIPFMIGDEIFLPFYKNVFSEFFSLFRRVPTSTPYEDLTYFYECDYTDNKSTFDQFYLYNGEEYTVKTQEATNKNMWLTTSEFRLKKWFDGEDCIMHLRSLVRKMEDSKRNTGGTGSSGSSDYKDDDDKHHHHHHHHGSSGSSAPTSSSTKKTQLQLEHLLLDLQMILNGINNYKNPKLTAMLTKKFYMPKKATELKHLQCLEEELKPLEEVLNLAQSKNFHLRPRDLISNINVIVLELKGSETTFMCEYADETATIVEFLNRWITFSQSIISTLT
notes: also called OMCP-mutant IL2; OMCP-IL2 construct
- binding result: binds
